Data on three proteins can be found in PMC3258144 (Nucleic Acids Research, 2011).

Series [1] concerns the molecule itself. Put plainly: native gel or EMSA. A general note: In EMSA bound probe runs differently from free probe, usually more slowly.
Series [2] concerns the molecule itself. In words: fluorescence polarisation. (In general: Fluorescence polarisation rises when a labelled molecule tumbles more slowly, as on binding a larger partner.)

B1: Dnmt3a-C K840E (domain or fragment, mouse, UniProt O88508 608-908, looked up)
chain: NHDQEFDPPKVYPPVPAEKRKPIRVLSLFDGIATGLLVLKDLGIQVDRYIASEVCEDSITVGMVRHQGKIMYVGDVRSVTQKHIQEWGPFDLVIGGSPCNDLSIVNPARKGLYEGTGRLFFEFYRLLHDARPKEGDDRPFFWLFENVVAMGVSDKRDISRFLESNPVMIDAKEVSAAHRARYFWGNLPGMNRPLASTVNDKLELQECLEHGRIAKFSKVRTITTRSNSIKQGEDQHFPVFMNEKEDILWCTEMERVFGFPVHYTDVSNMSRLARQRLLGRSWSVPVIRHLFAPLKEYFACV
With B1, in series [1], the binding result is “binds”.

B2: Dnmt3a-C E850H (domain or fragment, mouse, UniProt O88508 608-908, looked up)
chain: NHDQEFDPPKVYPPVPAEKRKPIRVLSLFDGIATGLLVLKDLGIQVDRYIASEVCEDSITVGMVRHQGKIMYVGDVRSVTQKHIQEWGPFDLVIGGSPCNDLSIVNPARKGLYEGTGRLFFEFYRLLHDARPKEGDDRPFFWLFENVVAMGVSDKRDISRFLESNPVMIDAKEVSAAHRARYFWGNLPGMNRPLASTVNDKLELQECLEHGRIAKFSKVRTITTRSNSIKQGKDQHFPVFMNHKEDILWCTEMERVFGFPVHYTDVSNMSRLARQRLLGRSWSVPVIRHLFAPLKEYFACV
On to B2, for which the binding result in series [1] is reported as “binds”.

B3: Dnmt3a-C R827E (domain or fragment, mouse, UniProt O88508 608-908, looked up)
chain: NHDQEFDPPKVYPPVPAEKRKPIRVLSLFDGIATGLLVLKDLGIQVDRYIASEVCEDSITVGMVRHQGKIMYVGDVRSVTQKHIQEWGPFDLVIGGSPCNDLSIVNPARKGLYEGTGRLFFEFYRLLHDARPKEGDDRPFFWLFENVVAMGVSDKRDISRFLESNPVMIDAKEVSAAHRARYFWGNLPGMNRPLASTVNDKLELQECLEHGRIAKFSKVETITTRSNSIKQGKDQHFPVFMNEKEDILWCTEMERVFGFPVHYTDVSNMSRLARQRLLGRSWSVPVIRHLFAPLKEYFACV
Turning to B3, the binding result in series [1] and in series [2] was “binds” each time.
